We go through 15 molecules from US20230312742A1 (Y MABS THERAPEUTICS, published 2023).

This assay deals with human CD38 antigen (recombinant human CD38 protein) (human, UniProt P28907 43-300, limits assumed). In words: SPR, IgG captured on anti-human Fc, human CD38 in solution.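 Note: humanized IgG captured on an amine-coupled anti-human Fc HC30M chip, with human CD38 injected as a dilution series from 1000 nM downward.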

Procedure: Surface Plasmon Resonance (SPR): To measure the binding affinity of the humanized IgG antibodies to their target antigen, an anti-human Fc surface was generated on a HC30M chip by amine coupling. The humanized IgG antibodies were diluted to either 10 μg/ml or 5 μg/ml and printed onto the anti-human Fc surface. Different dilutions of human CD38 antigen with a starting concentration of 1000 nM were prepared and flown over the surface.

B1: L1H1 (antibody, V domains shown)
VH: QVQLQESGPGLVKPSETLSLTCTVSGFSLTSYGVHWIRQPPGKGLEWIGVMWRGGSTDYNPSLKSRVTISKDNSKRQFSLKLSSVTAADTAVYYCAKSMITTGFVMDSWGQGTLVTVSS
VL: DIQMTQSPSSLSASVGDRVTITCRASEDIYNRLTWYQQKPGKAPKLLLSGATSLETGVPSRFSGSGSGKDYTLTISSLQPEDFATYYCQQYWSNPYTFGGGTKVEIK
notes: Humanized AT13/5 IgG, VL1 + VH1
Take B1: the Kd is 870 nM.

B2: L3H2 (antibody, V domains shown)
VH: QVQLQESGPGLVKPSETLSLTCTVSGFSLTSYGVHWVRQPPGKGLEWIGVMWRGGSTDYNPSLKSRVTISKDNSKRQFSLKMSSVTAADTAVYYCAKSMITTGFVMDSWGQGTLVTVSS
VL: DIQMTQSPSSLSASVGDRVTITCRASEDIYNRLTWYQQKPGKAPKLLLSGATSLETGVPSRFSGSGSGTDYTLTISSLQPEDFATYYCQQYWSNPYTFGGGTKVEIK
notes: Humanized AT13/5 IgG, VL3 + VH2
With B2, the Kd was 460 nM.

B3: L2H1 (antibody, V domains shown)
VH: QVQLQESGPGLVKPSETLSLTCTVSGFSLTSYGVHWIRQPPGKGLEWIGVMWRGGSTDYNPSLKSRVTISKDNSKRQFSLKLSSVTAADTAVYYCAKSMITTGFVMDSWGQGTLVTVSS
VL: DIQMTQSPSSLSASVGDRVTITCRASEDIYNRLAWYQQKPGKAPKLLLSGATSLETGVPSRFSGSGSGTDYTLTISSLQPEDFATYYCQQYWSNPYTFGGGTKVEIK
notes: Humanized AT13/5 IgG, VL2 + VH1
For B3, the Kd stood at 950 nM.

B4: L1H3 (antibody, V domains shown)
VH: QVQLQESGPGLVKPSETLSITCTVSGFSLTSYGVHWIRQPPGKGLEWIGVMWRGGSTDYNPSLKSRVTISKDTSKNQFSLKLSSLTAADTAVYYCAKSMITTGFVMDSWGQGTLVTVSS
VL: DIQMTQSPSSLSASVGDRVTITCRASEDIYNRLTWYQQKPGKAPKLLLSGATSLETGVPSRFSGSGSGKDYTLTISSLQPEDFATYYCQQYWSNPYTFGGGTKVEIK
notes: Humanized AT13/5 IgG, VL1 + VH3
As for B4, the Kd was 810 nM.

B5: L1H7 (antibody, V domains shown)
VH: QVQLKQSGPGLVKPSETLSLTCTVSGFSLTSYGVHWIRQPPGKGLEWIGVMWRGGSTNYNPSLKSRLTISVDTSKNQFSLKLSSVTAADTAVYYCAKSMITTGFVMDSWGQGTLVTVSS
VL: DIQMTQSPSSLSASVGDRVTITCRASEDIYNRLTWYQQKPGKAPKLLLSGATSLETGVPSRFSGSGSGKDYTLTISSLQPEDFATYYCQQYWSNPYTFGGGTKVEIK
notes: Humanized AT13/5 IgG, VL1 + VH7
For the molecule B5, the Kd was 8500 nM.

B6: L2H7 (antibody, V domains shown)
VH: QVQLKQSGPGLVKPSETLSLTCTVSGFSLTSYGVHWIRQPPGKGLEWIGVMWRGGSTNYNPSLKSRLTISVDTSKNQFSLKLSSVTAADTAVYYCAKSMITTGFVMDSWGQGTLVTVSS
VL: DIQMTQSPSSLSASVGDRVTITCRASEDIYNRLAWYQQKPGKAPKLLLSGATSLETGVPSRFSGSGSGTDYTLTISSLQPEDFATYYCQQYWSNPYTFGGGTKVEIK
notes: Humanized AT13/5 IgG, VL2 + VH7
On to B6, for which the Kd turned out to be 390 nM.

B7: L1H5 (antibody, V domains shown)
VH: QVQLQESGPGLVKPSETLSLTCTVSGFSLTSYGVHWIRQPPGKGLEWIGVMWRGGSTDYNPSLKSRVTISVDTSKNQFSFKLSSVTAADTAIYYCAKSMITTGFVMDSWGQGTLVTVSS
VL: DIQMTQSPSSLSASVGDRVTITCRASEDIYNRLTWYQQKPGKAPKLLLSGATSLETGVPSRFSGSGSGKDYTLTISSLQPEDFATYYCQQYWSNPYTFGGGTKVEIK
notes: Humanized AT13/5 IgG, VL1 + VH5
On to B7, for which the Kd is 1800 nM.

B8: L1H2 (antibody, V domains shown)
VH: QVQLQESGPGLVKPSETLSLTCTVSGFSLTSYGVHWVRQPPGKGLEWIGVMWRGGSTDYNPSLKSRVTISKDNSKRQFSLKMSSVTAADTAVYYCAKSMITTGFVMDSWGQGTLVTVSS
VL: DIQMTQSPSSLSASVGDRVTITCRASEDIYNRLTWYQQKPGKAPKLLLSGATSLETGVPSRFSGSGSGKDYTLTISSLQPEDFATYYCQQYWSNPYTFGGGTKVEIK
notes: Humanized AT13/5 IgG, VL1 + VH2
For the molecule B8, the Kd came out at 400 nM.

B9: L2H2 (antibody, V domains shown)
VH: QVQLQESGPGLVKPSETLSLTCTVSGFSLTSYGVHWVRQPPGKGLEWIGVMWRGGSTDYNPSLKSRVTISKDNSKRQFSLKMSSVTAADTAVYYCAKSMITTGFVMDSWGQGTLVTVSS
VL: DIQMTQSPSSLSASVGDRVTITCRASEDIYNRLAWYQQKPGKAPKLLLSGATSLETGVPSRFSGSGSGTDYTLTISSLQPEDFATYYCQQYWSNPYTFGGGTKVEIK
notes: Humanized AT13/5 IgG, VL2 + VH2
On to B9, for which the Kd was 910 nM.

B10: L3H3 (antibody, V domains shown)
VH: QVQLQESGPGLVKPSETLSITCTVSGFSLTSYGVHWIRQPPGKGLEWIGVMWRGGSTDYNPSLKSRVTISKDTSKNQFSLKLSSLTAADTAVYYCAKSMITTGFVMDSWGQGTLVTVSS
VL: DIQMTQSPSSLSASVGDRVTITCRASEDIYNRLTWYQQKPGKAPKLLLSGATSLETGVPSRFSGSGSGTDYTLTISSLQPEDFATYYCQQYWSNPYTFGGGTKVEIK
notes: Humanized AT13/5 IgG, VL3 + VH3
In the case of B10, the Kd was 1200 nM.

B11: L1H6 (antibody, V domains shown)
VH: QVQLQESGPGLVKPSETLSLTCTVSGFSLTSYGVHWIRQPPGKGLEWLGVMWRGGSTNYNPSLKSRVTISKDTSKNQFSLKLSSVTAADTAVYYCAKSMITTGFVMDSWGQGTLVTVSS
VL: DIQMTQSPSSLSASVGDRVTITCRASEDIYNRLTWYQQKPGKAPKLLLSGATSLETGVPSRFSGSGSGKDYTLTISSLQPEDFATYYCQQYWSNPYTFGGGTKVEIK
notes: Humanized AT13/5 IgG, VL1 + VH6
Regarding B11, the Kd amounted to 31 nM.

B12: L3H1 (antibody, V domains shown)
VH: QVQLQESGPGLVKPSETLSLTCTVSGFSLTSYGVHWIRQPPGKGLEWIGVMWRGGSTDYNPSLKSRVTISKDNSKRQFSLKLSSVTAADTAVYYCAKSMITTGFVMDSWGQGTLVTVSS
VL: DIQMTQSPSSLSASVGDRVTITCRASEDIYNRLTWYQQKPGKAPKLLLSGATSLETGVPSRFSGSGSGTDYTLTISSLQPEDFATYYCQQYWSNPYTFGGGTKVEIK
notes: Humanized AT13/5 IgG, VL3 + VH1
Take B12: the Kd turned out to be 650 nM.

B13: L2H3 (antibody, V domains shown)
VH: QVQLQESGPGLVKPSETLSITCTVSGFSLTSYGVHWIRQPPGKGLEWIGVMWRGGSTDYNPSLKSRVTISKDTSKNQFSLKLSSLTAADTAVYYCAKSMITTGFVMDSWGQGTLVTVSS
VL: DIQMTQSPSSLSASVGDRVTITCRASEDIYNRLAWYQQKPGKAPKLLLSGATSLETGVPSRFSGSGSGTDYTLTISSLQPEDFATYYCQQYWSNPYTFGGGTKVEIK
notes: Humanized AT13/5 IgG, VL2 + VH3
B13: the Kd was 830 nM.

B14: L2H6 (antibody, V domains shown)
VH: QVQLQESGPGLVKPSETLSLTCTVSGFSLTSYGVHWIRQPPGKGLEWLGVMWRGGSTNYNPSLKSRVTISKDTSKNQFSLKLSSVTAADTAVYYCAKSMITTGFVMDSWGQGTLVTVSS
VL: DIQMTQSPSSLSASVGDRVTITCRASEDIYNRLAWYQQKPGKAPKLLLSGATSLETGVPSRFSGSGSGTDYTLTISSLQPEDFATYYCQQYWSNPYTFGGGTKVEIK
notes: Humanized AT13/5 IgG, VL2 + VH6
In the case of B14, the Kd turned out to be 1900 nM.

B15: L1H4 (antibody, V domains shown)
VH: QVQLQESGPGLVKPSETLSLTCTVSGFSLTSYGVHWIRQPPGKGLEWIGVMWRGGSTDYNPSLKSRVTISVDTSKRQVSLKLSSVTAADTAVYYCAKSMITTGFVMDSWGQGTLVTVSS
VL: DIQMTQSPSSLSASVGDRVTITCRASEDIYNRLTWYQQKPGKAPKLLLSGATSLETGVPSRFSGSGSGKDYTLTISSLQPEDFATYYCQQYWSNPYTFGGGTKVEIK
notes: Humanized AT13/5 IgG, VL1 + VH4
Turning to B15, the Kd was found to be 300 nM.
